{"source": "patent US20230151111A1", "key": {"[1]": {"target": "human NT5E-Biotin (human) (UniProt P21589)", "sequence (P21589 27-552 limits assumed, form in doubt)": "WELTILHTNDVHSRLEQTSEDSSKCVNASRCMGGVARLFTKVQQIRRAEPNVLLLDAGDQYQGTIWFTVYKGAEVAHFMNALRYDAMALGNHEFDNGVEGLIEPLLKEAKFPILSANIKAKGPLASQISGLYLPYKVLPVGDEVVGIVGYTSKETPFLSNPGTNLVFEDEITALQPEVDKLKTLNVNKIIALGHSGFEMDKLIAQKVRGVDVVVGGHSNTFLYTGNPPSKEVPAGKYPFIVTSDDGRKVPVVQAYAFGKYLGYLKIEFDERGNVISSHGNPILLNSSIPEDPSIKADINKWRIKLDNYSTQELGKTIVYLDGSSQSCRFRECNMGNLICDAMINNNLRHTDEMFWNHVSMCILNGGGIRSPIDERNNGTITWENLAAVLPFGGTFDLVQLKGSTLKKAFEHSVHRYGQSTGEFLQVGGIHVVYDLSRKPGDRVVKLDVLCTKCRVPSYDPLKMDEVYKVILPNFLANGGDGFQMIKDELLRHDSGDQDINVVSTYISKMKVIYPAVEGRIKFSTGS", "assay": "ELISA, NT5E-biotin on streptavidin; antibody 0.333 ug/mL diluted 1:729"}, "[2]": {"target": "human NT5E-Biotin (human) (UniProt P21589)", "assay": "ELISA, NT5E-biotin on streptavidin"}, "[3]": {"target": "human NT5E-Biotin (human) (UniProt P21589)", "assay": "ELISA, NT5E-biotin on streptavidin; antibody 0.333 ug/mL diluted 1:243"}, "[4]": {"target": "human NT5E-Biotin (human) (UniProt P21589)", "assay": "ELISA, NT5E-biotin on streptavidin; antibody 0.333 ug/mL diluted 1:9"}, "[5]": {"target": "human NT5E-Biotin (human) (UniProt P21589)", "assay": "ELISA, NT5E-biotin on streptavidin; antibody 0.333 ug/mL"}, "[6]": {"target": "human NT5E-Biotin (human) (UniProt P21589)", "assay": "ELISA, NT5E-biotin on streptavidin; antibody 0.333 ug/mL diluted 1:81"}, "[7]": {"target": "human NT5E-Biotin (human) (UniProt P21589)", "assay": "ELISA, NT5E-biotin on streptavidin; antibody 0.333 ug/mL diluted 1:27"}, "[8]": {"target": "human NT5E(1-552)-his (human) (UniProt P21589)", "sequence (P21589 27-552 limits assumed)": "as the sequence (P21589 27-552 limits assumed, form in doubt) above", "assay": "BLI (Fortebio), antibody on Protein A sensor, NT5E(1-552)-his 3.125-200 nM, 37 C"}, "[9]": {"target": "human NT5E-Biotin (human) (UniProt P21589)", "assay": "ELISA, NT5E-biotin on streptavidin; antibody 0.333 ug/mL diluted 1:3"}, "PD-1-mFc (human) [10]": {"target": "PD-1-mFc (human) (UniProt Q15116)", "sequence (Q15116 other isoform, or with tags, fused parts or gaps limits assumed)": "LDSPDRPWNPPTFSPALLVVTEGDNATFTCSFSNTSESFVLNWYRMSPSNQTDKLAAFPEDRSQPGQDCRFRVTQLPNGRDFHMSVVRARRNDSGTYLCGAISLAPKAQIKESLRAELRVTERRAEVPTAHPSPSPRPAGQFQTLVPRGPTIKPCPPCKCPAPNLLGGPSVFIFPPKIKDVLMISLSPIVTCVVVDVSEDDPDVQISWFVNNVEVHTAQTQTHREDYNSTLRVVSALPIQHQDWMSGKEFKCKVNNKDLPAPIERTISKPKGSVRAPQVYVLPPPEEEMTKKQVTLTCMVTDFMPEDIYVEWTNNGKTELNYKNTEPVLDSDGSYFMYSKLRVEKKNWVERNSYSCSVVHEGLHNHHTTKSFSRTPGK", "assay": "ELISA, PD-1-mFc coated; antibody 1 ug/mL diluted 1:243"}, "[11]": {"target": "human PD-1-mFc-biotin (human) (UniProt Q15116)", "sequence (Q15116 other isoform, or with tags, fused parts or gaps limits assumed)": "as above", "assay": "competitive ELISA, competitor coated PD-L1-mFc; antibody 5 ug/mL diluted 1:729"}, "PD-1-mFc (human) [12]": {"target": "PD-1-mFc (human) (UniProt Q15116)", "assay": "ELISA, PD-1-mFc coated; antibody 1 ug/mL diluted 1:27"}, "[13]": {"target": "human PD-1-mFc-biotin (human) (UniProt Q15116)", "assay": "competitive ELISA, blocking of PD-1-mFc-biotin binding to coated PD-L1-mFc"}, "PD-1-mFc (human) [14]": {"target": "PD-1-mFc (human) (UniProt Q15116)", "assay": "ELISA, PD-1-mFc coated; antibody 1 ug/mL diluted 1:81"}, "[15]": {"target": "human PD-1-mFc-biotin (human) (UniProt Q15116)", "assay": "competitive ELISA, competitor coated PD-L1-mFc; antibody 5 ug/mL diluted 1:3"}, "PD-1-mFc (human) [16]": {"target": "PD-1-mFc (human) (UniProt Q15116)", "assay": "ELISA, PD-1-mFc coated; antibody 1 ug/mL diluted 1:3"}, "PD-1-mFc (human) [17]": {"target": "PD-1-mFc (human) (UniProt Q15116)", "assay": "ELISA, PD-1-mFc coated; antibody 1 ug/mL diluted 1:729"}, "[18]": {"target": "human PD-1-mFc-biotin (human) (UniProt Q15116)", "assay": "competitive ELISA, competitor coated PD-L1-mFc; antibody 5 ug/mL diluted 1:9"}, "PD-1-mFc (human) [19]": {"target": "PD-1-mFc (human) (UniProt Q15116)", "assay": "ELISA, PD-1-mFc coated; antibody 1 ug/mL"}, "[20]": {"target": "human PD-1-mFc-biotin (human) (UniProt Q15116)", "assay": "competitive ELISA, competitor coated PD-L1-mFc; antibody 5 ug/mL diluted 1:243"}, "PD-1-mFc (human) [21]": {"target": "PD-1-mFc (human) (UniProt Q15116)", "assay": "ELISA, PD-1-mFc coated; antibody 1 ug/mL diluted 1:9"}, "[22]": {"target": "human PD-1-mFc-biotin (human) (UniProt Q15116)", "assay": "competitive ELISA, competitor coated PD-L1-mFc; antibody 5 ug/mL"}, "[23]": {"target": "human PD-1-mFc-biotin (human) (UniProt Q15116)", "assay": "competitive ELISA, competitor coated PD-L1-mFc; antibody 5 ug/mL diluted 1:81"}, "[24]": {"target": "human PD-1-mFc-biotin (human) (UniProt Q15116)", "assay": "competitive ELISA, competitor coated PD-L1-mFc; antibody 5 ug/mL diluted 1:27"}}, "note": "Values joined by “and” are separate entries in the source; they are usually repeats but may differ in a detail not shown here. Equal entries are not always repeated."}
{"substance": "MEDI9447 (antibody)", "values": [{"measurement": "OD450", "setting": "[1]", "result": "0.288 OD and 0.305 OD"}, {"measurement": "EC50", "setting": "[2]", "result": 0.042, "unit": "nM"}, {"measurement": "OD450", "setting": "[3]", "result": "0.547 OD and 0.587 OD"}, {"measurement": "OD450", "setting": "[4]", "result": "2.22 OD and 2.35 OD"}, {"measurement": "OD450", "setting": "[5]", "result": "2.46 OD and 2.57 OD"}, {"measurement": "OD450", "setting": "[6]", "result": "1.09 OD and 1.17 OD"}, {"measurement": "OD450", "setting": "[7]", "result": "1.73 OD and 1.81 OD"}, {"measurement": "Kd", "setting": "[8]", "result": 0.104, "unit": "nM"}, {"measurement": "koff", "setting": "[8]", "result": "2.44e-05", "unit": "s⁻¹"}, {"measurement": "kon", "setting": "[8]", "result": 234000, "unit": "M⁻¹ s⁻¹"}, {"measurement": "OD450", "setting": "[9]", "result": "2.43 OD and 2.53 OD"}]}
{"substance": "nivolumab (antibody)", "values": [{"measurement": "OD450", "setting": "PD-1-mFc (human) [10]", "result": 0.98, "unit": "OD"}, {"measurement": "OD450", "setting": "[11]", "result": "1.35 OD and 1.28 OD"}, {"measurement": "OD450", "setting": "PD-1-mFc (human) [12]", "result": "2.2 OD and 2.22 OD"}, {"measurement": "EC50", "setting": "[13]", "result": 1.7, "unit": "nM"}, {"measurement": "OD450", "setting": "PD-1-mFc (human) [14]", "result": 1.71, "unit": "OD"}, {"measurement": "OD450", "setting": "[15]", "result": "0.075 OD and 0.076 OD"}, {"measurement": "OD450", "setting": "PD-1-mFc (human) [16]", "result": 2.44, "unit": "OD"}, {"measurement": "OD450", "setting": "PD-1-mFc (human) [17]", "result": "0.521 OD and 0.498 OD"}, {"measurement": "OD450", "setting": "[18]", "result": "0.107 OD and 0.1 OD"}, {"measurement": "OD450", "setting": "PD-1-mFc (human) [19]", "result": "2.39 OD and 2.47 OD"}, {"measurement": "OD450", "setting": "[20]", "result": "1.39 OD and 1.21 OD"}, {"measurement": "OD450", "setting": "PD-1-mFc (human) [21]", "result": "2.52 OD and 2.57 OD"}, {"measurement": "OD450", "setting": "[22]", "result": 0.057, "unit": "OD"}, {"measurement": "OD450", "setting": "[23]", "result": "1.24 OD and 1.15 OD"}, {"measurement": "OD450", "setting": "[24]", "result": "1.01 OD and 0.875 OD"}]}
